From IntAct's records for PubMed 20818436 come the findings set out here.

Sequences and labels used below:
B1: Zinc finger protein GLI1 (Homo sapiens), P08151 (parent)
chain: MFNSMTPPPISSYGEPCCLRPLPSQGAPSVGTEGLSGPPFCHQANLMSGPHSYGPARETNSCTEGPLFSSPRSAVKLTKKRALSISPLSDASLDLQTVIRTSPSSLVAFINSRCTSPGGSYGHLSIGTMSPSLGFPAQMNHQKGPSPSFGVQPCGPHDSARGGMIPHPQSRGPFPTCQLKSELDMLVGKCREEPLEGDMSSPNSTGIQDPLLGMLDGREDLEREEKREPESVYETDCRWDGCSQEFDSQEQLVHHINSEHIHGERKEFVCHWGGCSRELRPFKAQYMLVVHMRRHTGEKPHKCTFEGCRKSYSRLENLKTHLRSHTGEKPYMCEHEGCSKAFSNASDRAKHQNRTHSNEKPYVCKLPGCTKRYTDPSSLRKHVKTVHGPDAHVTKRHRGDGPLPRAPSISTVEPKREREGGPIREESRLTVPEGAMKPQPSPGAQSSCSSDHSPAGSAANTDSGVEMTGNAGGSTEDLSSLDEGPCIAGTGLSTLRRLENLRLDQLHQLRPIGTRGLKLPSLSHTGTTVSRRVGPPVSLERRSSSSSSISSAYTVSRRSSLASPFPPGSPPENGASSLPGLMPAQHYLLRARYASARGGGTSPTAASSLDRIGGLPMPPWRSRAEYPGYNPNAGVTRRASDPAQAADRPAPARVQRFKSLGCVHTPPTVAGGGQNFDPYLPTSVYSPQPPSITENAAMDARGLQEEPEVGTSMVGSGLNPYMDFPPTDTLGYGGPEGAAAEPYGARGPGSLPLGPGPPTNYGPNPCPQQASYPDPTQETWGEFPSHSGLYPGPKALGGTYSQCPRLEHYGQVQVKPEQGCPVGSDSTGLAPCLNAHPSEGPPHPQPLFSHYPQPSPPQYLQSGPYTQPPPDYLPSEPRPCLDFDSPTHSTGQLKAQLVCNYVQSQQELLWEGGGREDAPAQEPSYQSPKFLGGSQVSPSRAKAPVNTYGPGFGPNLPNHKSGSYPTPSPCHENFVVGANRASHRAAAPPRLLPPLPTCYGPLKVGGTNPSCGHPEVGRLGGGPALYPPPEGQVCNPLDSLDLDNTQLDFVAILDEPQGLSPPPSHDQRGSSGHTPPPSGPPNMAVGNMSVLLRSLPGETEFLNSSA

In this assay the parent is B1. The note with it: with itch_human ITCH.
As for Y859F;Y872F;S1060A, the “effect of a mutation on the interaction” value was “disrupting interaction”.
